Reference: US20220128561A1 (Bayer, published 2022)
Like-named read-outs stand apart in the source and are kept apart here. Values belong to the binder of their own block, whether it stands above or below them.

Columns and labels:
[1] = target: T1, WT rat sGC heme free (tween treated) (rat, UniProt P19686 1-690; P20595 1-619); experiment: capture ELISA: IgG coated at 5 ug/mL, tween-treated (heme-free) WT rat sGC titrated, streptavidin-HRP, OD 450 nm; the axis gives the sGC concentration
T1 construct: alpha1-StrepII/beta1 heterodimer made in Sf9 cells and purified; The heme was removed with 0.5% Tween20 for 20 min at 37 C; It has the same polypeptides as the heme-loaded form and differs only in lacking the heme; also called heme free sGC (as obtained by tween treatment); heme free version of wt rat sGC; not shown: C-terminal strep-tag (StrepII)
T1 sequence (looked up) 1: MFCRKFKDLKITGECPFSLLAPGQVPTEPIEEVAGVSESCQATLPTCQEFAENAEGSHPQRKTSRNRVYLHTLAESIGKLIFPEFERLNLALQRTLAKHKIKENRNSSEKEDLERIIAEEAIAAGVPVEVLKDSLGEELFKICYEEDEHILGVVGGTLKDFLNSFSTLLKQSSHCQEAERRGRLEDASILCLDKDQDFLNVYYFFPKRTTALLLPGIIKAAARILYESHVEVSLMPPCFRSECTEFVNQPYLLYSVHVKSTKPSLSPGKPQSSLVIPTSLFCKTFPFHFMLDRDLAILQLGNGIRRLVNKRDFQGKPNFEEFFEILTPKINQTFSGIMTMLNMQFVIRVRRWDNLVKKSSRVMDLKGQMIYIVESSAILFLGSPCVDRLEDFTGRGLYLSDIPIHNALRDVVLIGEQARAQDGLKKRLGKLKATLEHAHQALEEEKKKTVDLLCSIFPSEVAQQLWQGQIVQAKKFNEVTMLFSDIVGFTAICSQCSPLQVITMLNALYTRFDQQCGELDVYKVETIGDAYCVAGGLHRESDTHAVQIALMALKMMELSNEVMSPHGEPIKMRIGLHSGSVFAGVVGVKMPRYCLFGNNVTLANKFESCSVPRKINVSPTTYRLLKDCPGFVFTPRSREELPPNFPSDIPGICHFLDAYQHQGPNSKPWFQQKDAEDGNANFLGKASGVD
T1 sequence (looked up) 2: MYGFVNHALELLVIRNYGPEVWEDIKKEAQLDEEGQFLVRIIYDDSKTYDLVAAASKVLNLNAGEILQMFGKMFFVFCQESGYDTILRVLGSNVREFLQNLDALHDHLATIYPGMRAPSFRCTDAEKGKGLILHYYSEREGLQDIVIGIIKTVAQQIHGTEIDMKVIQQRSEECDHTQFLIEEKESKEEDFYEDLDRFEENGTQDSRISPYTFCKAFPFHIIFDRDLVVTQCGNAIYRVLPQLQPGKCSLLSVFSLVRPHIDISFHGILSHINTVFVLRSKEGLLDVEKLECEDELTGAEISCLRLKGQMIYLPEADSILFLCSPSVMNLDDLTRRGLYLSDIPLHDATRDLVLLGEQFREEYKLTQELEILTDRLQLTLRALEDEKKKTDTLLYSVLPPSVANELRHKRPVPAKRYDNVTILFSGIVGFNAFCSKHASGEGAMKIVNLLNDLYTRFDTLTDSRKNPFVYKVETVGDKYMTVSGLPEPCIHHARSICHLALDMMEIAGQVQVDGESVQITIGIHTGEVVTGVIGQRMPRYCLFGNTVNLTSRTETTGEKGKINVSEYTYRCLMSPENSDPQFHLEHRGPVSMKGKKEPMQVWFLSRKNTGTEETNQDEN
Method: (§1) To determine by ELISA the capacity of individual IgGs to discriminate the apo (heme free) version of wt rat sGC from the heme-loaded version, 5 μg/mL of each individual IgG were coated in Nunc® maxisorp 96-well plates overnight at 4° C. After a minimum 16 hours adsorption period, coated maxisorp plates were blocked with PBS-3% skimmed milk (v/v) prior to the addition of purified rat wt sGC proteins previously treated with 0.5% (v/v) tween to remove the heme group, or not-treated thus preserving heme group. Successful entrapment of heme free or heme-loaded wt rat sGC molecules by reformatted IgG molecules was detected with streptavidin-HRP.

[2] = target: T1, WT rat sGC heme free (tween treated); experiment: as above; remark: listed apart in the source
Method: as §1

[3] = target: T1, WT rat sGC heme free (tween treated); experiment: SPR
[4] = target: rat apo-sGC (H105F) (rat) (UniProt P19686); experiment: capture ELISA: IgG coated at 5 ug/mL, rat apo-sGC (H105F) titrated, streptavidin-HRP, OD 450 nm; the axis gives the sGC concentration
[5] = target: Human apo-sGC (H105F) (human) (UniProt Q02108); experiment: SPR
Human apo-sGC (H105F) (human), sequence (Q02108 whole entry, stated change not applied): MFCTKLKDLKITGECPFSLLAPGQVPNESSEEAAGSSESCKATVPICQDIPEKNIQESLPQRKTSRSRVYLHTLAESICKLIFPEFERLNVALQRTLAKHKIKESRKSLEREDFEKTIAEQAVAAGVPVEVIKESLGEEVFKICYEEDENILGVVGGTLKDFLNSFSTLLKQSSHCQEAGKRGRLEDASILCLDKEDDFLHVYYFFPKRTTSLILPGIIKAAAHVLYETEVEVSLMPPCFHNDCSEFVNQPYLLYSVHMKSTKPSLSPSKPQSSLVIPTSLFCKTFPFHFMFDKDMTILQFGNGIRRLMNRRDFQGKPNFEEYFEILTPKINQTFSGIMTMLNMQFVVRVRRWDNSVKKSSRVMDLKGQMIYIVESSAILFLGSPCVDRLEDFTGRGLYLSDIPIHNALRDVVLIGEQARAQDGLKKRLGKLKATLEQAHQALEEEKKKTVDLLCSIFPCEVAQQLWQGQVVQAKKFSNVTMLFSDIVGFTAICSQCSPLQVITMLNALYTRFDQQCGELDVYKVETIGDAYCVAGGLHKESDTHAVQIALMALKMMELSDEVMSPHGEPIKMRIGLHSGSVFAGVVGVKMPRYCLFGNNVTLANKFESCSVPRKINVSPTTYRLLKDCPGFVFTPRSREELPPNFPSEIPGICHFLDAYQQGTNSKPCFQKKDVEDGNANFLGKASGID

[6] = target: rat apo-sGC (H105F) (rat) (UniProt P19686); experiment: SPR

- EC50 (read off the curve) [1]: ~50 nM
- EC50 (read off the curve) [2]: ~20 nM
- Kd [3]: 50 nM
B1: TPP15715 (antibody, human IgG1, lambda, V domains shown)
VH: EVQLLESGGGLVQPGGSLRLSCAASGFTFSNYAMSWVRQAPGKGLEWVSAISGSGGSTFYADSVKGRFTISRDNSKNTLYLQMNSLRAEDTAVYYCATDGTDAFDIWGQGTLVTVSS
VL: QSVLTQPPSASGTPGQRVTISCTGSSSNIGAGYDVHWYQQLPGTAPKLLIYENDRRPSGVPDRFSGSKSGTSASLAISGLRSEDEADYYCAAWDDSLNGPLFGGGTKLTVLG
notes: also called 5H10; TPP15715_5H10

- EC50 (read off the curve) [4]: 70 nM
- Kd [5]: 146 nM
- Kd [6]: 67 nM
B2: TPP16284 (antibody, human IgG1, lambda, V domains shown)
VH: EVQLLESGGGLVQPGGSLRLSCAASGFTFSSYAMSWVRQAPGKGLEWVSGVSWNGSRTHYADSVKGRFTISRDNSKNTLYLQMNSLRAEDTAVYYCARERLGKWYFDLWGRGTLVTVSS
VL: QSVLTQPPSASGTPGQRVTISCSGSSSNIGNNAVNWYQQLPGTAPKLLIYGNSNRPSGVPDRFSGSKSGTSASLAISGLRSEDEADYYCQSYDSSLSGVFGGGTKLTVLG
